# Patent US8835136B2, “Engineered amine dehydrogenases and methods of use thereof” (Georgia Tech Research Corporation, priority 2012, dated 2014)
# “And” between values parts separate entries of the source, which are not always exact repeats. Equal entries are not always repeated.
# How the values were obtained:
# [1] = C1-AmDH amination at 60° C. in 4 M ammonium formate buffer; type: biochemical
# Procedure: (§1) All ketone substrates for the amination direction were measured at 20 mM and dissolved at 60° C. in 4 M ammonium formate buffer. Enzyme specificity was measured at 60° C. for 5 min. with NADH as the cofactor at 340 nm.
# (§2) The values for acetophenone, pFPA; NADH and NH3 were determined and are summarized in Table XX, all measured at 60° C.
# [2] = as above; type: biochemical; conditions: 20 mM
# Procedure: as §1
# C1-AmDH kinetic values = type: biochemical; conditions: 60° C.
# Procedure: as §2
# [3] = C1-AmDH amine activity measured photometrically; type: biochemical
# Procedure: Activities were also measured photometrically with 100 mM (+/−) methylhenzylamine (0.58 U/mg) as well as 100 mM (R)-methylbenzylamine. (0.98 U/mg), 50 mM (R,S)-adamanylethlamine (0.04 U/mg) and determined the enantioselectivity for this enzyme to be (R).
# [4] = Temperature vs activity profile for C1-AmDH; type: biochemical
# Procedure: The temperature activity profile was determined over a wide range until the limits of the instrument were reached. […] In contrast it is barely active between 20-30° C., so all measurements for activity were determined routinely at 60° C. Product conversions were done at 40° C. and 50° C., due to the temperature limits for regeneration enzyme, FDH. Temperature activity profiles were determined for pFPA and acetophenone (FIGS. 22A and 22B).
# [5] = T50 after 30 min (T50^30) of C1-AmDH; type: physicochemical
# Procedure: The T50 (after 30 min—T50^30) was also determined for the C1-AmDH. The T50^30 value was determined to be dependent on the buffer, in PBS, the enzyme was staple for 30 min at 50 C, at 60 C an beyond the enzyme deactivated within the timescale of the experiment. In the presence of 4M ammonium formate buffer we found the T50^30 value was determined to be at 70 C.
# [6] = Substrate conversion using C1-AmDH and cb-FDH, chiral GC; type: biochemical
# Procedure: Product formation was characterized for two substrates. The test assay utilized the C1-AmDH in 24 h conversion at 40° C. with cofactor regeneration in a biphasic solvent system with heptane as the organic layer and 5 M ammonium formate as the aqueous layer. Conversions were also carried out at 50° C., which is the upper limit for the cofactor regeneration enzyme FDH.
# This is not a quantitative evaluation, since amines are more water soluble than their ketone counterparts and only the organic layer was used for chiral gas chromatography (GC). The peaks were compared to the corresponding standard amines and both determined to be R-specific (FIGS. 24A and 24B).
molecule,measurement,setting,value
"C1-AmDH: chimeric AmDH: F-AmDH substrate binding domain with L-AmDH NAD-binding domain, SEQ ID NO:20 (protein) SLVEKTSIIKDFTLFEKMSEHEQVVFCNDPATGLRAIIAIHDTTLGPALGGCRMQPYNSVEEALEDALRLSKGMTYSCAASDVDFGGGKAVIIGDPQKDKSPELFRAFGQFVDSLGGRFYTGTDMGTNMEDFIHAMKETNCIVGVPEAYGSSGNPSPATAYGVYRGMKAAAKEAFGSDSLEGKVVAVQGVGNVAYHLCRHLHEEGAKLIVTDINKEAVARAVEEFGAKAVDPNDIYGVECDIFAPCALGGIINDQTIPQLKAKVIAGSALNQLKEPRHGDMIHEMGIVYAPDYVINAGGCINVADELYGYNRERAMKKIEQIYDNIEKVFAIAKRDNIPTYVAADRMAEERIETMRKARSQFLQNGHHILSRRRAR","kcat, Acetophenone",[1],0.24 s⁻¹
same,"kcat, pFPA",[1],1.24 s^−1
same,"Acetophenone, U/mg","[1]; 20 mM, 4 M ammonium formate",0.3 U/mg and 0.3019 U/mg
same,"Acetophenone, U/ml","[1]; 20 mM, 4 M ammonium formate",1.63 U/ml
same,"pFPA, U/mg","[1]; 20 mM, 4 M ammonium formate",1.7 U/mg and 1.725 U/mg
same,"pFPA, U/ml","[1]; 20 mM, 4 M ammonium formate",13.8 U/ml
same,Km,"[1]; read-out: KM, Acetophenone",5200 µM
same,Km,"[1]; read-out: KM, pFPA",1100 µM
same,"1,3-phenylbutanedione, U/mg",[2],0.06 U/mg
same,"1,3-phenylbutanedione, U/ml",[2],0.3 U/ml
same,"3-methyl-1-phenylbutanone, U/mg",[2],0.03 U/mg
same,"3-methyl-1-phenylbutanone, U/ml",[2],0.16 U/ml
same,"3-oxo-phenylbutyricacid ethylester, U/mg",[2],0 U/mg
same,"3-oxo-phenylbutyricacid ethylester, U/ml",[2],0 U/ml
same,"Adamantylmethylketone, U/mg",[2],0.07 U/mg
same,"Adamantylmethylketone, U/ml",[2],0 U/ml
same,"Benzophenone, U/mg",[2],0 U/mg
same,"Benzophenone, U/ml",[2],0 U/ml
same,"a-tetralone, U/mg",[2],0.1 U/mg and 0.1074 U/mg
same,"a-tetralone, U/ml",[2],0.58 U/ml
same,"b-tetralone, U/mg",[2],0 U/mg
same,"b-tetralone, U/ml",[2],0 U/ml
same,"dibenzylketone, U/ml",[2],1.39 U/ml
same,"pinacolone, U/mg",[2],0.1333 U/mg
same,"pinacolone, U/ml",[2],0.72 U/ml
same,"kcat, NADH",C1-AmDH kinetic values,0.92 s⁻¹
same,"kcat, NH3",C1-AmDH kinetic values,1.09 s⁻¹
same,Km,"C1-AmDH kinetic values; read-out: KM, NADH",40 µM
same,enantioselectivity,[3],(R)
same,"activity, (R,S)-adamanylethlamine",[3]; 50 mM,0.04 U/mg
same,"activity, (+/−) methylhenzylamine",[3]; 100 mM,0.58 U/mg
same,"activity, (R)-methylbenzylamine",[3]; 100 mM,0.98 U/mg
same,temperature activity profile,[4],did not show any decline of activity up to 80 °C
same,T50^30 value,"[5]; 4M ammonium formate buffer, 30 min",70 C
same,temperature at which stable for 30 min,[5]; in PBS,50 C
same,product formation from methylcyclohexanone,"[6]; 24 h, 40° C., heptane / 5 M ammonium formate",no product
same,enantiospecificity of product amines,"[6]; methylbenzylamine and p-fluorophenylproplyamin, chiral GC, organic layer",R-specific
